Data on two molecules can be found in publication doi:10.1101/683441.

This assay concerns the target GST-tagged Nedd4-2, full length (mouse). As to the kind of experiment: pull-down.

GST-tagged Nedd4-2, full length (mouse), sequence (Q8CFI0 whole entry): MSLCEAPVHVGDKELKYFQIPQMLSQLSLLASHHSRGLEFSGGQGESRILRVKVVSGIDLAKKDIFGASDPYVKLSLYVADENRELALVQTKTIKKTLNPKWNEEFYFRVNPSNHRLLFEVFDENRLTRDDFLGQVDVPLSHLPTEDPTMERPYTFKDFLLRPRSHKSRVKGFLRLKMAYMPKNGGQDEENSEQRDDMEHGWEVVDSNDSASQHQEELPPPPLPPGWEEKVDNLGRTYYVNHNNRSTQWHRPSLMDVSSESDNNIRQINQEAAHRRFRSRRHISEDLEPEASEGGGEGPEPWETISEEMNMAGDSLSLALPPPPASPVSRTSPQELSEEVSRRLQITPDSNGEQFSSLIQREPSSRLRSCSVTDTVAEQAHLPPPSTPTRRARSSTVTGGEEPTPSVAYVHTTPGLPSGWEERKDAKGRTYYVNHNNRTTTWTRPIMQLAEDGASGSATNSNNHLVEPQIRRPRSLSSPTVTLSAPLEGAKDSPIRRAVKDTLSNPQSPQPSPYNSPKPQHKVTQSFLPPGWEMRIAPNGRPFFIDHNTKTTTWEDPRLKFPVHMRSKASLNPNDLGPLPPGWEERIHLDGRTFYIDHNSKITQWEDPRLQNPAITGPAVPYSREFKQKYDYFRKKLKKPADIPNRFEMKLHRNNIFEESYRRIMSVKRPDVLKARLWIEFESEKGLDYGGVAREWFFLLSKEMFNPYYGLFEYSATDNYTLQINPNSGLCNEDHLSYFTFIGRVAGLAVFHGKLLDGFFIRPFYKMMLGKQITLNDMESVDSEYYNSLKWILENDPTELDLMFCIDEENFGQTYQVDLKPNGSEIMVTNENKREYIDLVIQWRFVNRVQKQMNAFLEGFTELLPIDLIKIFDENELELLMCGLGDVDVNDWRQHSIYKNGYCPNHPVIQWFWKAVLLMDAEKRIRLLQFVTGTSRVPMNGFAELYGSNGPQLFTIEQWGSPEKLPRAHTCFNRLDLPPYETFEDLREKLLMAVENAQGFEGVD

“HA-tagged Connexin43 (gap junction alpha 1 protein) (from UniProt P23242 1-382) (natural protein)”: the fold bound against GST-N4-1 was determined as 2 fold.

B1: HA-tagged Kir4.1 (inwardly rectifying K+ channel 4.1) (natural protein)
chain: MTSVAKVYYSQTTQTESRPLVAPGIRRRRVLTKDGRSNVRMEHIADKRFLYLKDLWTTFIDMQWRYKLLLFSATFAGTWFLFGVVWYLVAVAHGDLLELGPPANHTPCVVQVHTLTGAFLFSLESQTTIGYGFRYISEECPLAIVLLIAQLVLTTILEIFITGTFLAKIARPKKRAETIRFSQHAVVASHNGKPCLMIRVANMRKSLLIGCQVTGKLLQTHQTKEGENIRLNQVNVTFQVDTASDSPFLILPLTFYHVVDETSPLKDLPLRSGEGDFELVLILSGTVESTSATCQVRTSYLPEEILWGYEFTPAISLSASGKYIADFSLFDQVVKVASPSGLRDSTVRYGDPEKLKLEESLREQAEKEGSALSVRISNV
Regarding B1, the fold bound against GST-N4-1 came out at 2 fold.
